Data as given in US20100297160A1 (MEDICAL COLLEGE OF GEORGIA RESEARCH INSTITUTE, published 2010).

Target: human amyloid beta 42 (Aβ42) (human)
Assay: co-incubation of equimolar peptides for one month at 37 C, dialysis, 10 kDa filter concentration, SDS gel
Experimental: Various means were studied to enhance the immune potential of amyloid peptides. One such approach was derived from experiments with samples of human plasma and brain tissues having a complex of peptides that expressed epitopes for both human Aβ peptide and human RAGE. This involved the incubation of equimolar amounts of Aβ and an immunogenic fragment of RAGE for one month in sterile water at 37° C.
After incubation, the solution was dialyzed to remove unused products. The dialyzed solution was then concentrated in a centrifugation filter with a 10,000 molecular weight cutoff. […] The concentrated complex was dissolved in water and administered orally to rats on three occasions with two weeks between administrations. Two weeks after the last administration plasma samples were obtained for the determination of Aβ or RAGE titers.

Sequence of human amyloid beta 42 (Aβ42) (human) (peptide, as listed by the source): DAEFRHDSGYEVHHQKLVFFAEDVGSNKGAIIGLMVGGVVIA

binding result: binds
B1: immunogenic fragment of RAGE, amino acids 23 to 54 of human RAGE (RAGE23-54) (peptide)
peptide: AQNITARIGEPLVLKCKGAPKKPPQRLEWKLN
notes: also called RAGE fragment
